Measurements published in the supplement of paper PMC12855868.

B1: library; numbered along this chain (parent)
chain: MAAAGGARLLRAASAVLGGPAGRWLHHAGSRAGSSGLLRNRGPGGSAEASRSLSVSARARSSSEDKITVHFINRDGETLTTKGKVGDSLLDVVVENNLDIDGFGACEGTLACSTCHLIFEDHIYEKLDAITDEENDMLDLAYGLTDRSRLGCQICLTKSMDNMTVRVPETVADARQSIDVGKTS

Variants of: B1
Assay: scaled log2 fold change in cell abundance, elesclomol vs control (0 = silent mean, 1 = nonsense mean) (scaled log2 ratio); higher = higher viability under elesclomol (loss of FDX1 cuproptosis function)
Conditions: glucose 10 mM
Procedure: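 Deep mutational scan of full-length human FDX1: a pooled saturation-mutagenesis ORF library (every residue 2-184 mutated to all 19 amino acids plus stop, and silent codons where available) was expressed by lentivirus in FDX1-knockout ABC1 (14 days) or HEK293T (11 days) cells grown with elesclomol (ES) or DMSO control. Variant abundance came from ORF sequencing. The log2 fold change (ES vs control, mean of duplicates) was centred on the silent-variant mean (0) and scaled to the nonsense-variant mean (1). Higher values mean greater viability under ES, i.e. loss of FDX1 function in cuproptosis.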

[1] = with ABC1 FDX1 KO, elesclomol 5 nM, 14 days
[2] = with HEK293T FDX1 KO, elesclomol 40 nM, 11 days
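Also: variant abundance is its share of total variant reads in each endpoint sample, from next-generation sequencing of the integrated ORF PCR-amplified out of genomic DNA.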

Variant | scaled log2 fold change [1] | scaled log2 fold change [2]
MAAAGGARLLRAASAVLGGPAGRWLHHAGSTAGSSGLLRNRGPGGSAEASRSLSVSARARSSSEDKITVHFINRDGETLTTKGKVGDSLLDVVVENNLDIDGFGACEGTLACSTCHLIFEDHIYEKLDAITDEENDMLDLAYGLTDRSRLGCQICLTKSMDNMTVRVPETVADARQSIDVGKTS | -0.552 | -0.717
MAAAGGARLLRAASAVLGGPAGRWLHHAGSAAGSSGLLRNRGPGGSAEASRSLSVSARARSSSEDKITVHFINRDGETLTTKGKVGDSLLDVVVENNLDIDGFGACEGTLACSTCHLIFEDHIYEKLDAITDEENDMLDLAYGLTDRSRLGCQICLTKSMDNMTVRVPETVADARQSIDVGKTS | 0.317 | –
MAAAGGARLLRAASAVLGGPAGRWLHHAGSEAGSSGLLRNRGPGGSAEASRSLSVSARARSSSEDKITVHFINRDGETLTTKGKVGDSLLDVVVENNLDIDGFGACEGTLACSTCHLIFEDHIYEKLDAITDEENDMLDLAYGLTDRSRLGCQICLTKSMDNMTVRVPETVADARQSIDVGKTS | -0.00724 | –
MAAAGGARLLRAASAVLGGPAGRWLHHAGSGAGSSGLLRNRGPGGSAEASRSLSVSARARSSSEDKITVHFINRDGETLTTKGKVGDSLLDVVVENNLDIDGFGACEGTLACSTCHLIFEDHIYEKLDAITDEENDMLDLAYGLTDRSRLGCQICLTKSMDNMTVRVPETVADARQSIDVGKTS | 0.358 | -0.248
MAAAGGARLLRAASAVLGGPAGRWLHHAGSIAGSSGLLRNRGPGGSAEASRSLSVSARARSSSEDKITVHFINRDGETLTTKGKVGDSLLDVVVENNLDIDGFGACEGTLACSTCHLIFEDHIYEKLDAITDEENDMLDLAYGLTDRSRLGCQICLTKSMDNMTVRVPETVADARQSIDVGKTS | 0.762 | –
MAAAGGARLLRAASAVLGGPAGRWLHHAGSSAGSSGLLRNRGPGGSAEASRSLSVSARARSSSEDKITVHFINRDGETLTTKGKVGDSLLDVVVENNLDIDGFGACEGTLACSTCHLIFEDHIYEKLDAITDEENDMLDLAYGLTDRSRLGCQICLTKSMDNMTVRVPETVADARQSIDVGKTS | 0.29 | 0.11
MAAAGGARLLRAASAVLGGPAGRWLHHAGSVAGSSGLLRNRGPGGSAEASRSLSVSARARSSSEDKITVHFINRDGETLTTKGKVGDSLLDVVVENNLDIDGFGACEGTLACSTCHLIFEDHIYEKLDAITDEENDMLDLAYGLTDRSRLGCQICLTKSMDNMTVRVPETVADARQSIDVGKTS | 0.267 | –
MAAAGGARLLRAASAVLGGPAGRWLHHAGSHAGSSGLLRNRGPGGSAEASRSLSVSARARSSSEDKITVHFINRDGETLTTKGKVGDSLLDVVVENNLDIDGFGACEGTLACSTCHLIFEDHIYEKLDAITDEENDMLDLAYGLTDRSRLGCQICLTKSMDNMTVRVPETVADARQSIDVGKTS | -0.603 | –
MAAAGGARLLRAASAVLGGPAGRWLHHAGSNAGSSGLLRNRGPGGSAEASRSLSVSARARSSSEDKITVHFINRDGETLTTKGKVGDSLLDVVVENNLDIDGFGACEGTLACSTCHLIFEDHIYEKLDAITDEENDMLDLAYGLTDRSRLGCQICLTKSMDNMTVRVPETVADARQSIDVGKTS | -0.000941 | –
MAAAGGARLLRAASAVLGGPAGRWLHHAGSYAGSSGLLRNRGPGGSAEASRSLSVSARARSSSEDKITVHFINRDGETLTTKGKVGDSLLDVVVENNLDIDGFGACEGTLACSTCHLIFEDHIYEKLDAITDEENDMLDLAYGLTDRSRLGCQICLTKSMDNMTVRVPETVADARQSIDVGKTS | 0.463 | -0.658
MAAAGGARLLRAASAVLGGPAGRWLHHAGSQAGSSGLLRNRGPGGSAEASRSLSVSARARSSSEDKITVHFINRDGETLTTKGKVGDSLLDVVVENNLDIDGFGACEGTLACSTCHLIFEDHIYEKLDAITDEENDMLDLAYGLTDRSRLGCQICLTKSMDNMTVRVPETVADARQSIDVGKTS | 0.031 | 0.166
MAAAGGARLLRAASAVLGGPAGRWLHHAGSMAGSSGLLRNRGPGGSAEASRSLSVSARARSSSEDKITVHFINRDGETLTTKGKVGDSLLDVVVENNLDIDGFGACEGTLACSTCHLIFEDHIYEKLDAITDEENDMLDLAYGLTDRSRLGCQICLTKSMDNMTVRVPETVADARQSIDVGKTS | 0.66 | –
MAAAGGARLLRAASAVLGGPAGRWLHHAGSPAGSSGLLRNRGPGGSAEASRSLSVSARARSSSEDKITVHFINRDGETLTTKGKVGDSLLDVVVENNLDIDGFGACEGTLACSTCHLIFEDHIYEKLDAITDEENDMLDLAYGLTDRSRLGCQICLTKSMDNMTVRVPETVADARQSIDVGKTS | 0.561 | -0.0123
MAAAGGARLLRAASAVLGGPAGRWLHHAGSFAGSSGLLRNRGPGGSAEASRSLSVSARARSSSEDKITVHFINRDGETLTTKGKVGDSLLDVVVENNLDIDGFGACEGTLACSTCHLIFEDHIYEKLDAITDEENDMLDLAYGLTDRSRLGCQICLTKSMDNMTVRVPETVADARQSIDVGKTS | -0.116 | 0.357
MAAAGGARLLRAASAVLGGPAGRWLHHAGSWAGSSGLLRNRGPGGSAEASRSLSVSARARSSSEDKITVHFINRDGETLTTKGKVGDSLLDVVVENNLDIDGFGACEGTLACSTCHLIFEDHIYEKLDAITDEENDMLDLAYGLTDRSRLGCQICLTKSMDNMTVRVPETVADARQSIDVGKTS | -0.118 | -0.246
MAAAGGARLLRAASAVLGGPAGRWLHHAGSREGSSGLLRNRGPGGSAEASRSLSVSARARSSSEDKITVHFINRDGETLTTKGKVGDSLLDVVVENNLDIDGFGACEGTLACSTCHLIFEDHIYEKLDAITDEENDMLDLAYGLTDRSRLGCQICLTKSMDNMTVRVPETVADARQSIDVGKTS | 0.295 | -0.00588
MAAAGGARLLRAASAVLGGPAGRWLHHAGSRFGSSGLLRNRGPGGSAEASRSLSVSARARSSSEDKITVHFINRDGETLTTKGKVGDSLLDVVVENNLDIDGFGACEGTLACSTCHLIFEDHIYEKLDAITDEENDMLDLAYGLTDRSRLGCQICLTKSMDNMTVRVPETVADARQSIDVGKTS | 0.304 | 0.033
MAAAGGARLLRAASAVLGGPAGRWLHHAGSRGGSSGLLRNRGPGGSAEASRSLSVSARARSSSEDKITVHFINRDGETLTTKGKVGDSLLDVVVENNLDIDGFGACEGTLACSTCHLIFEDHIYEKLDAITDEENDMLDLAYGLTDRSRLGCQICLTKSMDNMTVRVPETVADARQSIDVGKTS | 0.242 | -0.0456
MAAAGGARLLRAASAVLGGPAGRWLHHAGSRDGSSGLLRNRGPGGSAEASRSLSVSARARSSSEDKITVHFINRDGETLTTKGKVGDSLLDVVVENNLDIDGFGACEGTLACSTCHLIFEDHIYEKLDAITDEENDMLDLAYGLTDRSRLGCQICLTKSMDNMTVRVPETVADARQSIDVGKTS | 0.119 | –
MAAAGGARLLRAASAVLGGPAGRWLHHAGSRCGSSGLLRNRGPGGSAEASRSLSVSARARSSSEDKITVHFINRDGETLTTKGKVGDSLLDVVVENNLDIDGFGACEGTLACSTCHLIFEDHIYEKLDAITDEENDMLDLAYGLTDRSRLGCQICLTKSMDNMTVRVPETVADARQSIDVGKTS | -0.309 | -1.08
